Data on 8 variants can be found in article PMC5014551.

The labels stand for the following.
B1: Bol3-Strep [S. cerevisiae] / Sdh2 [S. cerevisiae (endogenous in yeast mitochondria)] (parent)
chain 1: MKLPQTMLRSISVKHVRWPRILTGSKLWYSTQMAMTPEEKMITDKLQQELEPEVCKVQDVSGGCGSMFAINITSKKFNGLSLIKQHQLVNRILRDDISRWHGLQLTTKKSTGKGPASS
chain 2: TATTAAATHTPRLKTFKVYRWNPDEPSAKPHLQSYQVDLNDCGPMVLDALLKIKDEQDSTLTFRRSCREGICGSCAMNIGGRNTLACICKIDQNESKQLKIYPLPHMFIVKDLVPDLTNFYQQYKSIQPYLQRSSFPKDGTEVLQSIEDRKKLDGLYECILCACCSTSCPSYWWNQEQYLGPAVLMQAYRWLIDSRDQATKTRKAMLNNSMSLYRCHTIMNCTRTCPKGLNPGLAIAEIKKSLAFA
B2: Bol3-Strep [S. cerevisiae] / Lip5 [S. cerevisiae (endogenous in yeast mitochondria)] (parent)
chain 1: B1 chain 1
chain 2: SSTIRCGTSATRPIRSNALNTDSDNASVRVPVGNSTEVENATSQLTGTSGKRRKGNRKRITEFKDALNLGPSFADFVSGKASKMILDPLEKARQNTEEAKKLPRWLKVPIPKGTNYHKLKGDVKELGLSTVCEEARCPNIGECWGGKDKSKATATIMLLGDTCTRGCRFCSVKTNRTPSKPDPMEPENTAEAIKRWGLGYVVLTTVDRDDLVDGGANHLAETVRKIKQKAPNTLVETLSGDFRGDLKMVDIMAQCGLDVYAHNLETVESLTPHVRDRRATYRQSLSVLERAKATVPSLITKTSIMLGLGETDEQITQTLKDLRNIQCDVVTFGQYMRPTKRHMKVVEYVKPEKFDYWKERALEMGFLYCASGPLVRSSYKAGEAFIENVLKKRNMK
B3: Bol3-Strep [S. cerevisiae] / Aco2 [S. cerevisiae (endogenous in yeast mitochondria)] (parent)
chain 1: B1 chain 1
chain 2: ATHANMFPSVSKNFQTKVPPYAKLLTNLDKIKQITNNAPLTLAEKILYSHLCDPEESITSSDLSTIRGNKYLKLNPDRVAMQDASAQMALLQFMTTGLNQTSVPASIHCDHLIVGKDGETKDLPSSIATNQEVFDFLESCAKRYGIQFWGPGSGIIHQIVLENFSAPGLMMLGTDSHTPNAGGLGAIAIGVGGADAVDALTGTPWELKAPKILGVKLTGKLNGWSTPKDVITKLAGLLTVRGGTGYIVEYFGEGVSTLSCTGMATICNMGAEIGATTSTFPYQEAHKRYLQATNRAEVAEAADVALNKFNFLRADKDAQYDKVIEIDLSAIEPHVNGPFTPDLSTPISQYAEKSLKENWPQKVSAGLIGSCTNSSYQDMSRVVDLVKQASKAGLKPRIPFFVTPGSEQIRATLERDGIIDIFQENGAKVLANACGPCIGQWNREDVSKTSKETNTIFTSFNRNFRARNDGNRNTMNFLTSPEIVTAMSYSGDAQFNPLTDSIKLPNGKDFKFQPPKGDELPKRGFEHGRDKFYPEMDPKPDSNVEIKVDPNSDRLQLLEPFKPWNGKELKTNVLLKVEGKCTTDHISAAGVWLKYKGHLENISYNTLIGAQNKETGEVNKAYDLDGTEYDIPGLMMKWKSDGRPWTVIAEHNYGEGSAREHAALSPRFLGGEILLVKSFARIHETNLKKQGVLPLTFANESDYDKISSGDVLETLNLVDMIAKDGNNGGEIDVKITKPNGESFTIKAKHTMSKDQIDFFKAGSAINYIGNIRRNE
B4: Bol3-Strep [S. cerevisiae] / Bio2 [S. cerevisiae (endogenous in yeast mitochondria)] (parent)
chain 1: B1 chain 1
chain 2: TKYATNAAVKSTTASSEASTLGALQYALSLDEPSHSWTKSQLKEIYHTPLLELTHAAQLQHRKWHDPTKVQLCTLMNIKSGGCSEDCKYCAQSSRNDTGLKAEKMVKVDEVIKEAEEAKRNGSTRFCLGAAWRDMKGRKSAMKRIQEMVTKVNDMGLETCVTLGMVDQDQAKQLKDAGLTAYNHNIDTSREHYSKVITTRTYDDRLQTIKNVQESGIKACTGGILGLGESEDDHIGFIYTLSNMSPHPESLPINRLVAIKGTPMAEELADPKSKKLQFDEILRTIATARIVMPKAIIRLAAGRYTMKETEQFVCFMAGCNSIFTGKKMLTTMCNGWDEDKAMLAKWGLQPMEAFKYDRS
B5: Bol3-Strep [S. cerevisiae] / Grx5 [S. cerevisiae (endogenous in yeast mitochondria)] (parent)
chain 1: B1 chain 1
chain 2: LSTEIRKAIEDAIESAPVVLFMKGTPEFPKCGFSRATIGLLGNQGVDPAKFAAYNVLEDPELREGIKEFSEWPTIPQLYVNKEFIGGCDVITSMARSGELADLLEEAQALVPEEEEETKDR
B6: Bol3-Strep [S. cerevisiae] / Lys4 [S. cerevisiae (endogenous in yeast mitochondria)] (parent)
chain 1: B1 chain 1
chain 2: LKGQNLTEKIVQSYAVNLPEGKVVHSGDYVSIKPAHCMSHDNSWPVALKFMGLGATKIKNPSQIVTTLDHDIQNKSEKNLTKYKNIENFAKKHHIDHYPAGRGIGHQIMIEEGYAFPLNMTVASDSHSNTYGGLGSLGTPIVRTDAAAIWATGQTWWQIPPVAQVELKGQLPQGVSGKDIIVALCGLFNNDQVLNHAIEFTGDSLNALPIDHRLTIANMTTEWGALSGLFPVDKTLIDWYKNRLQKLGTNNHPRINPKTIRALEEKAKIPKADKDAHYAKKLIIDLATLTHYVSGPNSVKVSNTVQDLSQQDIKINKAYLVSCTNSRLSDLQSAADVVCPTGDLNKVNKVAPGVEFYVAAASSEIEADARKSGAWEKLLKAGCIPLPSGCGPCIGLGAGLLEPGEVGISATNRNFKGRMGSKDALAYLASPAVVAASAVLGKISSPAEVLSTSEIPFSGVKTEIIENPVVEEEVNAQTEAPKQSVEILEGFPREFSGELVLCDADNINTDGIYPGKYTYQDDVPKEKMAQVCMENYDAEFRTKVHPGDIVVSGFNFGTGSSREQAATALLAKGINLVVSGSFGNIFSRNSINNALLTLEIPALIKKLREKYQGAPKELTRRTGWFLKWDVADAKVVVTEGSLDGPVILEQKVGELGKNLQEIIVKGGLEGWVKSQL
B7: Bol1-Strep [S. cerevisiae] / Grx5 [S. cerevisiae (endogenous in yeast mitochondria)] (parent)
chain 1: MFKRAMSTDGPVARTILKRLECGFPDYKNFAFGLYNDSHKHKGHAGVQGNVSAETHFRIEMVSKKFEGLKLPQRHRMVYSLLQDEMAQANGIHALQLSLKTPQEYESKAK
chain 2: B5 chain 2
B8: Bol3-Strep [S. cerevisiae] / Aco1 [S. cerevisiae (endogenous in yeast mitochondria)] (parent)
chain 1: B1 chain 1
chain 2: ATVSNLTRDSKVNQNLLEDHSFINYKQNVETLDIVRKRLNRPFTYAEKILYGHLDDPHGQDIQRGVSYLKLRPDRVACQDATAQMAILQFMSAGLPQVAKPVTVHCDHLIQAQVGGEKDLKRAIDLNKEVYDFLASATAKYNMGFWKPGSGIIHQIVLENYAFPGALIIGTDSHTPNAGGLGQLAIGVGGADAVDVMAGRPWELKAPKILGVKLTGKMNGWTSPKDIILKLAGITTVKGGTGKIVEYFGDGVDTFSATGMGTICNMGAEIGATTSVFPFNKSMIEYLEATGRGKIADFAKLYHKDLLSADKDAEYDEVVEIDLNTLEPYINGPFTPDLATPVSKMKEVAVANNWPLDVRVGLIGSCTNSSYEDMSRSASIVKDAAAHGLKSKTIFTVTPGSEQIRATIERDGQLETFKEFGGIVLANACGPCIGQWDRRDIKKGDKNTIVSSYNRNFTSRNDGNPQTHAFVASPELVTAFAIAGDLRFNPLTDKLKDKDGNEFMLKPPHGDGLPQRGYDAGENTYQAPPADRSTVEVKVSPTSDRLQLLKPFKPWDGKDAKDMPILIKAVGKTTTDHISMAGPWLKYRGHLENISNNYMIGAINAENKKANCVKNVYTGEYKGVPDTARDYRDQGIKWVVIGDENFGEGSSREHAALEPRFLGGFAIITKSFARIHETNLKKQGLLPLNFKNPADYDKINPDDRIDILGLAELAPGKPVTMRVHPKNGKPWDAVLTHTFNDEQIEWFKYGSALNKIKADEKK

One test covers variants of B1. Briefly: Strep-tag affinity purification with MS proteomics (spectral counts). The note with it: parent: 32, read off a plot.
For the variant chain 1 H101C, the screen value is 24%.

A further test covers variants of B2. The description is as above. As to conditions: parent: 10, read off a plot.
Take chain 1 H101C: the screen value was 10%.

A further test covers variants of B3. Described as above. The note with it: parent: 0, read off a plot.
Consider chain 1 H101C, for which the screen value came out at 11%.

A further test covers variants of B4. Described as above. The note with it: parent: 8, read off a plot.
On to chain 1 H101C, for which the screen value came out at 31%.

A further test covers variants of B5. Described as above. The note with it: parent: 21, read off a plot.
For chain 1 H101C, the screen value stood at 18%.

In a further test the parent is B6. The test is described as above. As to conditions: parent: 10, read off a plot.
With chain 1 H101C, the screen value worked out at 30%.

The next test covers variants of B7. Described as above. The note with it: parent: 47, read off a plot.
Turning to chain 1 H93C, the screen value came to 5.9%.

The next test covers variants of B8. Described as above. The note with it: parent: 10, read off a plot.
As to chain 1 H101C, the screen value came out at 22%.
